For the data set, the system named is HD-polyQ72-GFP or HD-Q104-GFP in BHK cells. The data set can be described thus: Double label immunofluorescence of BHK cells co-transfected with C4 sFv and HD-polyQ-GFP. To be noted: 5:1 C4:HD-polyQ-GFP. In kind it is cell-based. Here is the method: Some aggregates are found in 104Q co-transfections (never in 25Q), often in cells not expressing C4 (arrowheads), but in some dually-transfected cells as well (arrow). […] Cell lysates were collected from 5:1 co-transfections (sFv:HD-72Q-GFP) in duplicate at 24 hours (prior to prominent aggregate formation and loss of HD-72Q-GFP to the insoluble compartment) and subjected to SDS-PAGE. The membrane was probed with 1:1000 […] primary antibody (Quantum), stripped and reprobed with 1:500 anti-actin antibody (Sigma). HD-72Q-GFP bands were of similar intensity after detection by HRP-conjugated secondary antibody and chemiluminescence.
The typical intrabody constructs were fused to a C-terminal hemagglutinin (HA) peptide tag to facilitate immunodetection of the protein, while keeping the protein localized to the cytosol. […] The diffuse labeling was also characteristic of the normal length (25Q) construct, with or without intrabody co-transfection (FIG. 15).

B1: C4 sFv: human single-chain Fv intrabody from phage display, specific for the 17 N-terminal residues of huntingtin; SEQ ID NO: 6 (protein)
scFv: QVQLQESGGGLVQPGGSLRLSCAASGFTFSSYSMSWVRQAPGKGLEWVAVISYDGSNKYYADSVKGRFTISRDNSKNTLYLQMNSLRAEDTAVYYCARDRYFDLWGRGTLVTVSSGGGGSGGGGSGGGGSQSALTQPASVSGSPGQSITISCTGTSSDIGAYNYVSWYQQYPGKAPKLLIYDVSNRPSGISNRFSGSKSGDTASLTISGLQAEDEADYYCSSFANSGPLFGGGTKVTVL
Take B1: the “GFP label and aggregates in dual transfectants” value is reported as “substantial diffuse GFP label, but with only an occasional fluorescent aggregate”.

Values taken from patent publication US20050255113A1, “Methods and compositions for inhibiting polypeptide accumulation associated with neurological disorders” (New York State Department of Health and Abgenix, Inc., priority 1999, published 2005).
